Columns and labels:
Cav2.2 = target: T1, Cav2.2 (Homo sapiens, UniProt Q00975); assay: cell-based; conditions: 100% = no change, <100% = inhibition
T1 construct: host or cells: HEK293 or CHO
Outline: (§1)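 Transfected HEK293 or CHO cells were exposed for at least 5 min to peptides at 200 nM and 20 μM final, tested in duplicate, in HEPES-buffered physiological saline. Activation was taken as peptide-plus-agonist current over control current ×100, and inhibition as 1 minus that ratio ×100. Each channel's control was its own reference compound.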

Kv2.1 = target: T2, Kv2.1 (Homo sapiens, UniProt Q14721); assay: cell-based; conditions: 100% = no change, <100% = inhibition
T2 construct: host or cells: HEK293 or CHO
Outline: as §1

Cav2.1 = target: T3, Cav2.1 (Homo sapiens, UniProt O00555); assay: cell-based; conditions: 100% = no change, <100% = inhibition
T3 construct: host or cells: HEK293 or CHO
Outline: as §1

α3β4 = target: T4, α3β4 (Homo sapiens, UniProt P30926+P32297); assay: Ion channel panel (IonWorks Barracuda): α3β4; type: cell-based; conditions: 100% = no change, <100% = inhibition
T4 construct: host or cells: HEK293 or CHO
Outline: as §1

α4β2 = target: T5, α4β2 (Homo sapiens, UniProt P17787+P43681); assay: Ion channel panel (IonWorks Barracuda): α4β2; type: cell-based; conditions: 100% = no change, <100% = inhibition
T5 construct: host or cells: HEK293 or CHO
Outline: as §1

NR2A = target: T6, NR2A (Homo sapiens, UniProt Q12879); assay: Ion channel panel (IonWorks Barracuda): NR2A; type: cell-based; conditions: 100% = no change, <100% = inhibition
T6 construct: host or cells: HEK293 or CHO
Outline: as §1

NR2B = target: T7, NR2B (Homo sapiens, UniProt Q13224); assay: Ion channel panel (IonWorks Barracuda): NR2B; type: cell-based; conditions: 100% = no change, <100% = inhibition
T7 construct: host or cells: HEK293 or CHO
Outline: as §1

Nav1.5 = Nav1.5 (Homo sapiens, UniProt Q14524); assay: in vitro; conditions: 100% = no change; for Activity of Nav1.5 with peptide, expressed as a percentage of the reference compound: peptide at 0.2 μM; for Activity of Nav1.5 with peptide (percentage of the reference compound): peptide at 20 μM
Outline: as §1

hERG = hERG (Homo sapiens, UniProt Q12809); assay: in vitro; conditions: 100% = no change, <100% = inhibition
Outline: as §1

Kv1.3 = target: T8, Kv1.3 (Homo sapiens, UniProt P22001); assay: cell-based; type: cell-based; conditions: 100% = no change, <100% = inhibition
T8 construct: host or cells: HEK293 or CHO
Outline: as §1

Kv1.1 = target: T9, Kv1.1 (Homo sapiens, UniProt Q09470); assay: cell-based; type: cell-based; conditions: 100% = no change, <100% = inhibition
T9 construct: host or cells: HEK293 or CHO
Outline: as §1

Kv1.2 = target: T10, Kv1.2 (Homo sapiens, UniProt P16389); assay: cell-based; type: cell-based; conditions: 100% = no change, <100% = inhibition
T10 construct: host or cells: HEK293 or CHO
Outline: as §1

Kir2.1 = target: T11, Kir2.1 (Homo sapiens, UniProt P63252); assay: Ion channel panel (IonWorks Barracuda): Kir2.1; type: cell-based; conditions: 100% = no change, <100% = inhibition
T11 construct: host or cells: HEK293 or CHO
Outline: as §1

Nav1.7 = target: T12, Nav1.7 (Homo sapiens, UniProt Q15858); assay: cell-based; type: cell-based; conditions: 100% = no change; for Activity of Nav1.7 with peptide, expressed as a percentage of the reference compound: peptide at 0.2 μM; for Activity of Nav1.7 with peptide (percentage of the reference compound): peptide at 20 μM
T12 construct: host or cells: HEK293 or CHO

5HT3a = target: T13, 5HT3a (Homo sapiens, UniProt P46098); assay: Ion channel panel (IonWorks Barracuda): 5HT3a; type: cell-based
T13 construct: host or cells: HEK293 or CHO
T13 sequence (P46098 whole entry, looked up): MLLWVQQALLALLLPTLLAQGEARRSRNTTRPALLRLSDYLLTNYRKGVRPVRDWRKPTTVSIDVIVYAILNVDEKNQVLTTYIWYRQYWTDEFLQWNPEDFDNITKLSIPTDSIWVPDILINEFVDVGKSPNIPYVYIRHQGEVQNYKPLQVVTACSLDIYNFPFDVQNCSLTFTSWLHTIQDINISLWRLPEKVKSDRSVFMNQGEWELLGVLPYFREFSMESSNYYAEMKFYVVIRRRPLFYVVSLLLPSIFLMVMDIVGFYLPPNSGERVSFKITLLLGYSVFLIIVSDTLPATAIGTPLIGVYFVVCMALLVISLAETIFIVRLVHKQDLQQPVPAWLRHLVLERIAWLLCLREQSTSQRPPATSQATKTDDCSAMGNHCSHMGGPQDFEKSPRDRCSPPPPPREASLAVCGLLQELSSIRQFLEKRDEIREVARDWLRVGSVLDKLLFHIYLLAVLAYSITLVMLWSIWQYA
Outline: as §1

TRPA1 = target: T14, TRPA1 (Homo sapiens, UniProt O75762); assay: Ion channel panel (IonWorks Barracuda): TRPA1; type: cell-based; conditions: 100% = no change, <100% = inhibition
T14 construct: host or cells: HEK293 or CHO
Outline: as §1

GABA = assay: Ion channel panel (IonWorks Barracuda): GABA; type: cell-based; conditions: 100% = no change, <100% = inhibition
Outline: as §1

TRPV1 = target: T15, TRPV1 (Homo sapiens, UniProt Q8NER1); assay: Ion channel panel (IonWorks Barracuda): TRPV1; type: cell-based; conditions: 100% = no change, <100% = inhibition
T15 construct: host or cells: HEK293 or CHO
Outline: as §1

[1] = first of two Nav1.5 columns (probably TP1)
[2] = second of two Nav1.5 columns (probably TP2)
[3] = first of two Nav1.7 columns (probably TP1)
[4] = second of two Nav1.7 columns (probably TP2)

Nav1.5, sequence (Q14524 whole entry): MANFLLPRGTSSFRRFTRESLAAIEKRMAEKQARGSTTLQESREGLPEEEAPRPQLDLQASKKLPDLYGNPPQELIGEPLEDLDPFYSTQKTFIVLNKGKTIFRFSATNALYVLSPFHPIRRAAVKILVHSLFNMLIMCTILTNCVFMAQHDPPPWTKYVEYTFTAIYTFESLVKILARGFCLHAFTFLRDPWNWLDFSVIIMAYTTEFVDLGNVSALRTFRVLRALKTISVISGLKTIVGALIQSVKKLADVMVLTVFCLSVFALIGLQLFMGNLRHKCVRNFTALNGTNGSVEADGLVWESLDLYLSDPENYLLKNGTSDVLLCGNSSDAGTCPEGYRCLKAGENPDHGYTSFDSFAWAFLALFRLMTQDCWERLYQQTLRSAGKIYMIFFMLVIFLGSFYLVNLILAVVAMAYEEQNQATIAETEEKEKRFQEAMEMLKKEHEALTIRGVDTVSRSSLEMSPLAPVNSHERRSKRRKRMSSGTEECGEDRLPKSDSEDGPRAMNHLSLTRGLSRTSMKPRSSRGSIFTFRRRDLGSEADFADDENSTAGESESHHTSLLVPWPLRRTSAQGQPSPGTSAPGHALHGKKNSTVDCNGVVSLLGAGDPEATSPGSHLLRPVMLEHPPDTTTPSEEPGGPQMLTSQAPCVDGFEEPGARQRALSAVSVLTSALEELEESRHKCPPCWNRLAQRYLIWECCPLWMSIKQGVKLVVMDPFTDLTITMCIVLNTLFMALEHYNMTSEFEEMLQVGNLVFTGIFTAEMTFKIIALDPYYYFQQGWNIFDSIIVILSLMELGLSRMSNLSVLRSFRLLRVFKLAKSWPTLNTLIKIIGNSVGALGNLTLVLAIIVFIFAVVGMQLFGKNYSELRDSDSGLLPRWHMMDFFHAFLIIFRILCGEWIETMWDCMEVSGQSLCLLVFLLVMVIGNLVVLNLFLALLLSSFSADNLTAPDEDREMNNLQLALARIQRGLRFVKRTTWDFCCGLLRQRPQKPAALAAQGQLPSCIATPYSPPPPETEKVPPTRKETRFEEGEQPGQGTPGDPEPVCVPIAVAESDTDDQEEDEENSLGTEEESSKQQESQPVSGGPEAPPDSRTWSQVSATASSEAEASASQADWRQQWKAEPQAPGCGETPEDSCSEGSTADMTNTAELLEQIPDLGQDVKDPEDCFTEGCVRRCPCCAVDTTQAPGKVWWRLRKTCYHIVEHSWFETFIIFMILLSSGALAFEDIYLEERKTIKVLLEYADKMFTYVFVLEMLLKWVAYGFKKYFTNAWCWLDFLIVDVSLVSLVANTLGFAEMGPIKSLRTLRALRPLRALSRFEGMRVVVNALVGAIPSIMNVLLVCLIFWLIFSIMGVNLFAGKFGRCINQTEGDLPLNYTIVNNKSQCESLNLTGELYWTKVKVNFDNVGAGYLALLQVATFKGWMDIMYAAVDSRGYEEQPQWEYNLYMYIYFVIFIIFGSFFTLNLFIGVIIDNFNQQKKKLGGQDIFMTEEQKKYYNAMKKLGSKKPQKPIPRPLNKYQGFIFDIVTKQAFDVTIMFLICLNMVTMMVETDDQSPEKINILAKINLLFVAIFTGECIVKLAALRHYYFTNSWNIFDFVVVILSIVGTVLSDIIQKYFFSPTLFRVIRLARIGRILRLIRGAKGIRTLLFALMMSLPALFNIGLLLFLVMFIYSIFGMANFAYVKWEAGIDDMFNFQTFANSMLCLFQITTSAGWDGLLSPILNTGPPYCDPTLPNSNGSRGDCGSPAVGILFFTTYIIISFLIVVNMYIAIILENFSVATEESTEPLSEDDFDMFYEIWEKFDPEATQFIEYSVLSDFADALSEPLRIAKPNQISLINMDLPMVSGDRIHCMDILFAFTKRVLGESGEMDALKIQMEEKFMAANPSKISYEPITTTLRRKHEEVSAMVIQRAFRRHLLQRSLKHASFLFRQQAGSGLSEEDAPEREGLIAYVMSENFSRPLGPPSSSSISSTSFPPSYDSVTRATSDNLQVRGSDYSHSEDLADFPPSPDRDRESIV
T12 sequence (Q15858 whole entry): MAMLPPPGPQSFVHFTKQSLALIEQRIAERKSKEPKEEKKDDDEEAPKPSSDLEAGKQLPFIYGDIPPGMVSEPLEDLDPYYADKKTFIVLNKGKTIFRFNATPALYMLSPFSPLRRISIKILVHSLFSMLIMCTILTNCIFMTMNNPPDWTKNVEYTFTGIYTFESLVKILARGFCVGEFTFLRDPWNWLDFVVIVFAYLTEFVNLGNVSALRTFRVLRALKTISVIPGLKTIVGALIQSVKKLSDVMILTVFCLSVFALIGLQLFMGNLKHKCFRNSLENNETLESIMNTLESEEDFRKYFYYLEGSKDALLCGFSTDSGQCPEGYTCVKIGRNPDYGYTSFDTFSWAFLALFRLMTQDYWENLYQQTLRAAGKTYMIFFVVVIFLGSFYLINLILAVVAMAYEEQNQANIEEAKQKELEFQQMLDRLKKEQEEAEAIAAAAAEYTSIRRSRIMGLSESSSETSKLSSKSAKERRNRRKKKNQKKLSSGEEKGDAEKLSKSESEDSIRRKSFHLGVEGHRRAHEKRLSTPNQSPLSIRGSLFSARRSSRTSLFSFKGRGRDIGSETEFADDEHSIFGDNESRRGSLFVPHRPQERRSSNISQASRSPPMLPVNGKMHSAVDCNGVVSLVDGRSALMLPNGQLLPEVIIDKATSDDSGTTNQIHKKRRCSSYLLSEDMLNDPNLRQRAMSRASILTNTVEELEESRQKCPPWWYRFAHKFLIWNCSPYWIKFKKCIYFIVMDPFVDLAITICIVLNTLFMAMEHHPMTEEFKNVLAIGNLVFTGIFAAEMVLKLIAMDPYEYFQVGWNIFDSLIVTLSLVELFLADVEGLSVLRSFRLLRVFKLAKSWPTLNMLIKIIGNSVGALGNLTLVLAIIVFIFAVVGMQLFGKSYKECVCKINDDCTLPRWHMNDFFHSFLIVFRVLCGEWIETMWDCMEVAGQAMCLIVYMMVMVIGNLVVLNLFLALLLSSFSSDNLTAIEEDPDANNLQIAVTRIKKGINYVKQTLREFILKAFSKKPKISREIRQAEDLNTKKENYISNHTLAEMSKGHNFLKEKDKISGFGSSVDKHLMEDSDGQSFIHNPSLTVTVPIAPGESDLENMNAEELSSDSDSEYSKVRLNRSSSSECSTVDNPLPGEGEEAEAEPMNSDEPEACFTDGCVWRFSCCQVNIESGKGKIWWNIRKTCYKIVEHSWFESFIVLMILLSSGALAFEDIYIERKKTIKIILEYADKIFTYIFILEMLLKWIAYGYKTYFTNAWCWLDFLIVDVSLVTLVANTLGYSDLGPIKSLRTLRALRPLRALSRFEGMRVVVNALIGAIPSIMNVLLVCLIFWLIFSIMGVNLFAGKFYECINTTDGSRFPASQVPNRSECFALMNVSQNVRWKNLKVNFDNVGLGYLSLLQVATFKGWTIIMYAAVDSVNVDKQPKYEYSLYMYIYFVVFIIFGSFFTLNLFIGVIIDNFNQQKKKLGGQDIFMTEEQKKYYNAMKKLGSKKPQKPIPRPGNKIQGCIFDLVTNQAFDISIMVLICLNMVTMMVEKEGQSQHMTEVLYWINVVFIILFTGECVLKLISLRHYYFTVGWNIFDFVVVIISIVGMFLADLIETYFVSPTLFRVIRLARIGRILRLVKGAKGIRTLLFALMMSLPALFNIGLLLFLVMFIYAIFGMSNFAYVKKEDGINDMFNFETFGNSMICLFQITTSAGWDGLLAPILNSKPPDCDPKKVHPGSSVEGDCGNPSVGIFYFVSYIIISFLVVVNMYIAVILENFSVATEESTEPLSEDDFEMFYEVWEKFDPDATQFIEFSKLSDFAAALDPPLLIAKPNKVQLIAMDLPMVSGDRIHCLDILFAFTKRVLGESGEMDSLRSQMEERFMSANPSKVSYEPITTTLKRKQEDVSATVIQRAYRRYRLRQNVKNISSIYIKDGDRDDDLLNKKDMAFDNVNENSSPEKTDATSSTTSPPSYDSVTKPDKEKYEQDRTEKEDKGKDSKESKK
T10 sequence (P16389 whole entry): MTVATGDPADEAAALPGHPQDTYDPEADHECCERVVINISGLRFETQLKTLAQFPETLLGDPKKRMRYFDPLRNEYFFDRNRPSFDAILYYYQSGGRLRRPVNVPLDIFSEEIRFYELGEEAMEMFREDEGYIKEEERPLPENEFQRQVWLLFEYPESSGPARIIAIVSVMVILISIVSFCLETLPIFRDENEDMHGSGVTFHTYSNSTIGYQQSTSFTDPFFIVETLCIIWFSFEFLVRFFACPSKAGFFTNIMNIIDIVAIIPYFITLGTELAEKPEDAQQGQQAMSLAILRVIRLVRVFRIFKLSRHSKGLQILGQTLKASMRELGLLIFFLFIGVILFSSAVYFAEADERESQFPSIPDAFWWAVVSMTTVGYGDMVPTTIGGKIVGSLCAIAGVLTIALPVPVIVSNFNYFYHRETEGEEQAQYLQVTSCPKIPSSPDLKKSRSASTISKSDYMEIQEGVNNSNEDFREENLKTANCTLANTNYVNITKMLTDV
T8 sequence (P22001 whole entry): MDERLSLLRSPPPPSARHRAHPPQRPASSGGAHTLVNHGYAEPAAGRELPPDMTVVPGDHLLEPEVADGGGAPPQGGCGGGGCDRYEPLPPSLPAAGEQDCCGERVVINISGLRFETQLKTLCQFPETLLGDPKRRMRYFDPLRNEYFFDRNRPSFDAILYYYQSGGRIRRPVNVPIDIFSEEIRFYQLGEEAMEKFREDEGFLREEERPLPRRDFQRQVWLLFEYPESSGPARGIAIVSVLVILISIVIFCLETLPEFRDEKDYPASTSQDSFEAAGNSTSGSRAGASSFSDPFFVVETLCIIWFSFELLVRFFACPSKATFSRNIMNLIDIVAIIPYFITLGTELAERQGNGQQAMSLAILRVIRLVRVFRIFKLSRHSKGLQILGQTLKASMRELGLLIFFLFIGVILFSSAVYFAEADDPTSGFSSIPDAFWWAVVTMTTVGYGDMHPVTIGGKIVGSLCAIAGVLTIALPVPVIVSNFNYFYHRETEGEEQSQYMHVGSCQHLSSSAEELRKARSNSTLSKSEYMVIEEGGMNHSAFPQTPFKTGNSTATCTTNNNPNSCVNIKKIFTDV

In the case of “32 (GSQDKCKKVYENYPVSKCQLANQCNYDCKLDKHARSGECFYDEKRNLQCICDYCEY) [compound 32]”, the “Activity of Cav2.2 with peptide, expressed as a percentage of the reference compound” value (Cav2.2; peptide at 0.2 μM) is reported as 102%, the “Activity of Cav2.2 with peptide (percentage of the reference compound)” value (Cav2.2; peptide at 20 μM) is reported as 101% and the “Activity of Kv2.1 with peptide, expressed as a percentage of the reference compound” value (Kv2.1; peptide at 0.2 μM) is reported as 92%. For the same substance, the “Activity of Kv2.1 with peptide (percentage of the reference compound)” value (Kv2.1; peptide at 20 μM) was 93%, the “Activity of Cav2.1 with peptide, expressed as a percentage of the reference compound” value (Cav2.1; peptide at 0.2 μM) was 98% and the “Activity of Cav2.1 with peptide (percentage of the reference compound)” value (Cav2.1; peptide at 20 μM) was 92%. For the same substance, the “Activity of a3b4 with peptide, expressed as a percentage of the reference compound” value (α3β4; peptide at 0.2 μM) was 100%, the “Activity of a3b4 with peptide (percentage of the reference compound)” value (α3β4; peptide at 20 μM) was 96% and the “Activity of a4b2 with peptide, expressed as a percentage of the reference compound” value (α4β2; peptide at 0.2 μM) was 81%. For the same substance, the “Activity of a4b2 with peptide (percentage of the reference compound)” value (α4β2; peptide at 20 μM) was 86%, the “Activity of NR2A with peptide, expressed as a percentage of the reference compound” value (NR2A; peptide at 0.2 μM) was 95% and the “Activity of NR2A with peptide (percentage of the reference compound)” value (NR2A; peptide at 20 μM) was 110%. The “Activity of NR2B with peptide, expressed as a percentage of the reference compound” value (NR2B; peptide at 0.2 μM) was 76%, the “Activity of NR2B with peptide (percentage of the reference compound)” value (NR2B; peptide at 20 μM) was 106% and the “Activity of Nav1.5 with peptide, expressed as a percentage of the reference compound” value (Nav1.5; [1]) was 108%. For the same substance, the “Activity of Nav1.5 with peptide, expressed as a percentage of the reference compound” value (Nav1.5; [2]) was 101%, the “Activity of Nav1.5 with peptide (percentage of the reference compound)” value (Nav1.5; [1]) was 90% and the “Activity of Nav1.5 with peptide (percentage of the reference compound)” value (Nav1.5; [2]) was 90%. For the same substance, the “Activity of hERG with peptide, expressed as a percentage of the reference compound” value (hERG; peptide at 0.2 μM) was 90%, the “Activity of hERG with peptide (percentage of the reference compound)” value (hERG; peptide at 20 μM) was 65% and the “Activity of Kv1.3 with peptide, expressed as a percentage of the reference compound” value (Kv1.3; peptide at 0.2 μM) was 98%. For the same substance, the “Activity of Kv1.3 with peptide (percentage of the reference compound)” value (Kv1.3; peptide at 20 μM) was 98%, the “Activity of Kv1.1 with peptide, expressed as a percentage of the reference compound” value (Kv1.1; peptide at 0.2 μM) was 76% and the “Activity of Kv1.1 with peptide (percentage of the reference compound)” value (Kv1.1; peptide at 20 μM) was 114%. The “Activity of Kv1.2 with peptide, expressed as a percentage of the reference compound” value (Kv1.2; peptide at 0.2 μM) was 89%, the “Activity of Kv1.2 with peptide (percentage of the reference compound)” value (Kv1.2; peptide at 20 μM) was 112% and the “Activity of Kir2.1 with peptide, expressed as a percentage of the reference compound” value (Kir2.1; peptide at 0.2 μM) was 95%. The “Activity of Kir2.1 with peptide (percentage of the reference compound)” value (Kir2.1; peptide at 20 μM) was 79%, the “Activity of Nav1.7 with peptide, expressed as a percentage of the reference compound” value (Nav1.7; [3]) was 96% and the “Activity of Nav1.7 with peptide, expressed as a percentage of the reference compound” value (Nav1.7; [4]) was 97%. For the same substance, the “Activity of Nav1.7 with peptide (percentage of the reference compound)” value (Nav1.7; [3]) was 87%, the “Activity of Nav1.7 with peptide (percentage of the reference compound)” value (Nav1.7; [4]) was 61% and the “Activity of 5HT3a with peptide (percentage of the reference compound)” value (5HT3a) was 105%. For the same substance, the “Activity of 5HT3a with peptide, expressed as a percentage of the reference compound” value (5HT3a) was 95%, the “Activity of TRPA1 with peptide, expressed as a percentage of the reference compound” value (TRPA1; peptide at 0.2 μM) was 130% and the “Activity of TRPA1 with peptide (percentage of the reference compound)” value (TRPA1; peptide at 20 μM) was 108%. The “Activity of GABA with peptide, expressed as a percentage of the reference compound” value (GABA; peptide at 0.2 μM) was 98%, the “Activity of GABA with peptide (percentage of the reference compound)” value (GABA; peptide at 20 μM) was 105% and the “Activity of TRPV1 with peptide, expressed as a percentage of the reference compound” value (TRPV1; peptide at 0.2 μM) was 99%. For the same substance, the “Activity of TRPV1 with peptide (percentage of the reference compound)” value (TRPV1; peptide at 20 μM) was 84%.

— patent US20200262877A1, “ION CHANNEL-BINDING PEPTIDES AND METHODS OF USE THEREOF” (priority 2017, published 2020)
